Measured values: US20230174630A1 (UNIVERSITY OF BRITISH COLUMBIA, published 2023)

B1: MYCL20H-14H1-14K2 (scFv)
scFv: MAIVMTQTPSSKSVPVGGSVTINCQASESVYSNNRLSWYQQKPGQPPKLLIYYASTLESGVPSRFKGSGFGTHFTLTISGAQCDDAATYYCAGWRGARTDGVDFGGGTEVVVKGSTGGGGSGKPGSGEGGGGSQEQLEESGGDLVKPEGSLTLTCTASGFSFSSNYVMCWVRQAPGKGLEWVACIWFAGIVDTTYYATWAKGRFTISKTSSTTVTLQMTSLTAADTATYFCARNPVGSVNLWGQGTLVTVSSGSGEQKLISEEDL
notes: Intrabody: VL-20 aa linker-VH-GSG-MYC tag
B2: YPTL-2F7 (scFv)
scFv: MDVKLVESGGGLVKLGGSLKLSCAASGFTFSSYYMSWVRQTPEKRLELVATINSNGGSTYYPDTVKGRITISRDNAKNTLQLQMSSLRSEDTALYYCVRQNYEGAYWGQGTLVTVSAGGGGSGGGGSGGGGSDVLMTQTPLSLPVTLGDQASISCRSSQSIVHSNGNTYLEWYLQKPGQSPKLLIYKVSNRFSGVPDRFSGSGSGTDFTLKISRVEAEDLGVYYCFQSSHVPWTFGGGTKLEIKDYKDDDDKRWRKSHSSSYTPLSGSTYPEGRH
B3: YPTL-14H1-14K2 (scFv)
scFv: MQEQLEESGGDLVKPEGSLTLTCTASGFSFSSNYVMCWVRQAPGKGLEWVACIWFAGIVDTTYYATWAKGRFTISKTSSTTVTLQMTSLTAADTATYFCARNPVGSVNLWGQGTLVTVSSGGGGSGGGGSGGGGSVMTQTPSSKSVPVGGSVTINCQASESVYSNNRLSWYQQKPGQPPKLLIYYASTLESGVPSRFKGSGFGTHFTLTISGAQCDDAATYYCAGWRGARTDGVDFGGGTEVVVKDYKDDDDKRWRKSHSSSYTPLSGSTYPEGRH

Molecular target: T1, endogenous wild type TDP-43 of HEK293 cells (human, UniProt Q13148 1-414)
T1 construct: whole, on cells; Intracellular endogenous protein: nuclear in unstressed cells; also called endogenous, nuclear WT TDP-43; normal nuclear TDP-43
T1 sequence (Q13148 whole entry): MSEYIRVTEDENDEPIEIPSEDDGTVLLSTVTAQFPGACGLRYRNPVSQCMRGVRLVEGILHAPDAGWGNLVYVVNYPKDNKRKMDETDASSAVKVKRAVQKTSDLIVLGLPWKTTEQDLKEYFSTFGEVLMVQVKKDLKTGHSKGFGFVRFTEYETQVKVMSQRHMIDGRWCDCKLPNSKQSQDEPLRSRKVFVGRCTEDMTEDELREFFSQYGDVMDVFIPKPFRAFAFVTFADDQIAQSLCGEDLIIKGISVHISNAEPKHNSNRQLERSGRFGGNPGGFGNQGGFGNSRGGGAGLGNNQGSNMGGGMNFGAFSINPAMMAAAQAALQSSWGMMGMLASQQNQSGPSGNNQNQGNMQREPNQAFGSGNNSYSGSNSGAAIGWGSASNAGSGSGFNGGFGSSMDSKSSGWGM
Assay: co-localization immunocytochemistry, intrabody expressed in HEK293 cells

Binding result, no binding:
B1
B2
B3
